Results on 6 molecules are retold here after patent US20260001928A1 (CORTERIA PHARMACEUTICALS, priority 2022, published 2026).

*1 amine or outer side, *2 acyl side, *3 side chain or, on linkers, in order; H or OH if unused. Where no end group is shown, it is not given here. Side-chain parts run from the residue outwards. [ ]: non-standard residue; d: D form. The star is where a group is joined. C20 diacid = O=C(O)CCCCCCCCCCCCCCCCCCC(=O)*; γGlu = O=C(O)[C@H](CCC(=O)[*:2])N[*:1]; NMeI = CC[C@H](C)[C@H](NC)C(=O)O; Pentanoyl = CCCCC(=O)*; Aib = CC(C)(N)C(=O)O

The target of assay [1] is human corticotropin-releasing factor 2a (CRF2a receptor) (human), Q13324. Kind of assay: cell-based or functional assay.
In the next assay the target is T1, CRF1R receptor (UniProt P34998 24-415, limits assumed).
T1 sequence (looked up): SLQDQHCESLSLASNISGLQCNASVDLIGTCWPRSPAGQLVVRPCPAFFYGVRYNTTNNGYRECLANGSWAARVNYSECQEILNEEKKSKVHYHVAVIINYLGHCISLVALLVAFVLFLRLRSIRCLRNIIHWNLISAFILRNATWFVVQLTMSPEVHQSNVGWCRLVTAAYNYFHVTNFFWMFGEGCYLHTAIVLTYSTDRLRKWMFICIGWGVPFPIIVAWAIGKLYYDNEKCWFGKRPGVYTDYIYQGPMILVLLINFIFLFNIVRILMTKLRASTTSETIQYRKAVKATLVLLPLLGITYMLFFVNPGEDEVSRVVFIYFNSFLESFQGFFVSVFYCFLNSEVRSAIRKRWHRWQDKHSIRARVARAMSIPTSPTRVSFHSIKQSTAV
The experiment in a line: cell-based or functional assay.

Sequence of human corticotropin-releasing factor 2a (CRF2a receptor) (human), Q13324 (Q13324 20-411): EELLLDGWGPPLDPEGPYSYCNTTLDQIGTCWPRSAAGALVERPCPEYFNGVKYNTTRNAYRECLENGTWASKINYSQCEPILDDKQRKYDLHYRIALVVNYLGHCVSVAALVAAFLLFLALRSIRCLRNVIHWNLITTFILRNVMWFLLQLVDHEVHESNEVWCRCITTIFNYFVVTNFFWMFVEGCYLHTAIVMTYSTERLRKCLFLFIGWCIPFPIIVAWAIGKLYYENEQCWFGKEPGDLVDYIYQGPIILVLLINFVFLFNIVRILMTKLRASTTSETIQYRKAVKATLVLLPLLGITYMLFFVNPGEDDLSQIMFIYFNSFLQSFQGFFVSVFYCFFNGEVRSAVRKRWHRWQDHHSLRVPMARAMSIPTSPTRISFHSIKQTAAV

B1: SEQ ID NO 220 (peptide)
peptide: Pentanoyl-VLSLD[dV]PIKLK([γGlu-C20 diacid])KILLEQEKQK[Aib]QREQAETN[Aib]QILAQV-NH2
SMILES: CCCCC(=O)N[C@H](C(=O)N[C@@H](CC(C)C)C(=O)N[C@@H](CO)C(=O)N[C@@H](CC(C)C)C(=O)N[C@@H](CC(=O)O)C(=O)N[C@@H](C(=O)N1CCC[C@H]1C(=O)N[C@H](C(=O)N[C@@H](CCCCN)C(=O)N[C@@H](CC(C)C)C(=O)N[C@@H](CCCCNC(=O)CC[C@H](NC(=O)CCCCCCCCCCCCCCCCCCC(=O)O)C(=O)O)C(=O)N[C@@H](CCCCN)C(=O)N[C@H](C(=O)N[C@@H](CC(C)C)C(=O)N[C@@H](CC(C)C)C(=O)N[C@@H](CCC(=O)O)C(=O)N[C@@H](CCC(N)=O)C(=O)N[C@@H](CCC(=O)O)C(=O)N[C@@H](CCCCN)C(=O)N[C@@H](CCC(N)=O)C(=O)N[C@@H](CCCCN)C(=O)NC(C)(C)C(=O)N[C@@H](CCC(N)=O)C(=O)N[C@@H](CCCNC(=N)N)C(=O)N[C@@H](CCC(=O)O)C(=O)N[C@@H](CCC(N)=O)C(=O)N[C@@H](C)C(=O)N[C@@H](CCC(=O)O)C(=O)N[C@H](C(=O)N[C@@H](CC(N)=O)C(=O)NC(C)(C)C(=O)N[C@@H](CCC(N)=O)C(=O)N[C@H](C(=O)N[C@@H](CC(C)C)C(=O)N[C@@H](C)C(=O)N[C@@H](CCC(N)=O)C(=O)N[C@H](C(N)=O)C(C)C)[C@@H](C)CC)[C@@H](C)O)[C@@H](C)CC)[C@@H](C)CC)C(C)C)C(C)C
Take B1: the EC50 [nM] (cAMP) in assay [1] was 0.27 nM. The “Emax (% I)” value with CRF1R receptor amounted to 32%.

B2: SEQ ID NO 219 (peptide)
peptide: Pentanoyl-VLSLD[dV]PIKLK([γGlu-C20 diacid])KILLEQEKQKKQREQAETN[Aib]QILAQV-NH2
SMILES: CCCCC(=O)N[C@H](C(=O)N[C@@H](CC(C)C)C(=O)N[C@@H](CO)C(=O)N[C@@H](CC(C)C)C(=O)N[C@@H](CC(=O)O)C(=O)N[C@@H](C(=O)N1CCC[C@H]1C(=O)N[C@H](C(=O)N[C@@H](CCCCN)C(=O)N[C@@H](CC(C)C)C(=O)N[C@@H](CCCCNC(=O)CC[C@H](NC(=O)CCCCCCCCCCCCCCCCCCC(=O)O)C(=O)O)C(=O)N[C@@H](CCCCN)C(=O)N[C@H](C(=O)N[C@@H](CC(C)C)C(=O)N[C@@H](CC(C)C)C(=O)N[C@@H](CCC(=O)O)C(=O)N[C@@H](CCC(N)=O)C(=O)N[C@@H](CCC(=O)O)C(=O)N[C@@H](CCCCN)C(=O)N[C@@H](CCC(N)=O)C(=O)N[C@@H](CCCCN)C(=O)N[C@@H](CCCCN)C(=O)N[C@@H](CCC(N)=O)C(=O)N[C@@H](CCCNC(=N)N)C(=O)N[C@@H](CCC(=O)O)C(=O)N[C@@H](CCC(N)=O)C(=O)N[C@@H](C)C(=O)N[C@@H](CCC(=O)O)C(=O)N[C@H](C(=O)N[C@@H](CC(N)=O)C(=O)NC(C)(C)C(=O)N[C@@H](CCC(N)=O)C(=O)N[C@H](C(=O)N[C@@H](CC(C)C)C(=O)N[C@@H](C)C(=O)N[C@@H](CCC(N)=O)C(=O)N[C@H](C(N)=O)C(C)C)[C@@H](C)CC)[C@@H](C)O)[C@@H](C)CC)[C@@H](C)CC)C(C)C)C(C)C
In assay [1], B2 showed an EC50 [nM] (cAMP) of 0.16 nM. For the same molecule, in the assay with CRF1R receptor, the “EC50” value came to 222 nM and the “Emax (% I)” value is 48%.

B3: SEQ ID NO 218 (peptide)
peptide: [NMeI]VLSLD[dV]PIKLK([γGlu-C20 diacid])KILLEQEKQKEQREQAETN[Aib]QILAQV-NH2
modifications: N-terminus assumed
SMILES: CC[C@H](C)[C@H](NC)C(=O)N[C@H](C(=O)N[C@@H](CC(C)C)C(=O)N[C@@H](CO)C(=O)N[C@@H](CC(C)C)C(=O)N[C@@H](CC(=O)O)C(=O)N[C@@H](C(=O)N1CCC[C@H]1C(=O)N[C@H](C(=O)N[C@@H](CCCCN)C(=O)N[C@@H](CC(C)C)C(=O)N[C@@H](CCCCNC(=O)CC[C@H](NC(=O)CCCCCCCCCCCCCCCCCCC(=O)O)C(=O)O)C(=O)N[C@@H](CCCCN)C(=O)N[C@H](C(=O)N[C@@H](CC(C)C)C(=O)N[C@@H](CC(C)C)C(=O)N[C@@H](CCC(=O)O)C(=O)N[C@@H](CCC(N)=O)C(=O)N[C@@H](CCC(=O)O)C(=O)N[C@@H](CCCCN)C(=O)N[C@@H](CCC(N)=O)C(=O)N[C@@H](CCCCN)C(=O)N[C@@H](CCC(=O)O)C(=O)N[C@@H](CCC(N)=O)C(=O)N[C@@H](CCCNC(=N)N)C(=O)N[C@@H](CCC(=O)O)C(=O)N[C@@H](CCC(N)=O)C(=O)N[C@@H](C)C(=O)N[C@@H](CCC(=O)O)C(=O)N[C@H](C(=O)N[C@@H](CC(N)=O)C(=O)NC(C)(C)C(=O)N[C@@H](CCC(N)=O)C(=O)N[C@H](C(=O)N[C@@H](CC(C)C)C(=O)N[C@@H](C)C(=O)N[C@@H](CCC(N)=O)C(=O)N[C@H](C(N)=O)C(C)C)[C@@H](C)CC)[C@@H](C)O)[C@@H](C)CC)[C@@H](C)CC)C(C)C)C(C)C
In assay [1], B3 showed an EC50 [nM] (cAMP) of 0.11 nM. For the same molecule, the “Emax (% I)” value in the assay with CRF1R receptor is 24%.

B4: SEQ ID NO 217 (peptide)
peptide: [NMeI]VLSLD[dV]PIKLK([γGlu-C20 diacid])KILLEQEKQKAQREQAETN[Aib]QILAQV-NH2
modifications: N-terminus assumed
SMILES: CC[C@H](C)[C@H](NC)C(=O)N[C@H](C(=O)N[C@@H](CC(C)C)C(=O)N[C@@H](CO)C(=O)N[C@@H](CC(C)C)C(=O)N[C@@H](CC(=O)O)C(=O)N[C@@H](C(=O)N1CCC[C@H]1C(=O)N[C@H](C(=O)N[C@@H](CCCCN)C(=O)N[C@@H](CC(C)C)C(=O)N[C@@H](CCCCNC(=O)CC[C@H](NC(=O)CCCCCCCCCCCCCCCCCCC(=O)O)C(=O)O)C(=O)N[C@@H](CCCCN)C(=O)N[C@H](C(=O)N[C@@H](CC(C)C)C(=O)N[C@@H](CC(C)C)C(=O)N[C@@H](CCC(=O)O)C(=O)N[C@@H](CCC(N)=O)C(=O)N[C@@H](CCC(=O)O)C(=O)N[C@@H](CCCCN)C(=O)N[C@@H](CCC(N)=O)C(=O)N[C@@H](CCCCN)C(=O)N[C@@H](C)C(=O)N[C@@H](CCC(N)=O)C(=O)N[C@@H](CCCNC(=N)N)C(=O)N[C@@H](CCC(=O)O)C(=O)N[C@@H](CCC(N)=O)C(=O)N[C@@H](C)C(=O)N[C@@H](CCC(=O)O)C(=O)N[C@H](C(=O)N[C@@H](CC(N)=O)C(=O)NC(C)(C)C(=O)N[C@@H](CCC(N)=O)C(=O)N[C@H](C(=O)N[C@@H](CC(C)C)C(=O)N[C@@H](C)C(=O)N[C@@H](CCC(N)=O)C(=O)N[C@H](C(N)=O)C(C)C)[C@@H](C)CC)[C@@H](C)O)[C@@H](C)CC)[C@@H](C)CC)C(C)C)C(C)C
In turn, B4 had an EC50 [nM] (cAMP) in assay [1] of 0.09 nM. Further, the “Emax (% I)” value in the assay with CRF1R receptor was determined as 33%.

B5: SEQ ID NO 216 (peptide)
peptide: [NMeI]VLSLD[dV]PIKLK([γGlu-C20 diacid])KILLEQEAQKKQREQAETN[Aib]QILAQV-NH2
modifications: N-terminus assumed
SMILES: CC[C@H](C)[C@H](NC)C(=O)N[C@H](C(=O)N[C@@H](CC(C)C)C(=O)N[C@@H](CO)C(=O)N[C@@H](CC(C)C)C(=O)N[C@@H](CC(=O)O)C(=O)N[C@@H](C(=O)N1CCC[C@H]1C(=O)N[C@H](C(=O)N[C@@H](CCCCN)C(=O)N[C@@H](CC(C)C)C(=O)N[C@@H](CCCCNC(=O)CC[C@H](NC(=O)CCCCCCCCCCCCCCCCCCC(=O)O)C(=O)O)C(=O)N[C@@H](CCCCN)C(=O)N[C@H](C(=O)N[C@@H](CC(C)C)C(=O)N[C@@H](CC(C)C)C(=O)N[C@@H](CCC(=O)O)C(=O)N[C@@H](CCC(N)=O)C(=O)N[C@@H](CCC(=O)O)C(=O)N[C@@H](C)C(=O)N[C@@H](CCC(N)=O)C(=O)N[C@@H](CCCCN)C(=O)N[C@@H](CCCCN)C(=O)N[C@@H](CCC(N)=O)C(=O)N[C@@H](CCCNC(=N)N)C(=O)N[C@@H](CCC(=O)O)C(=O)N[C@@H](CCC(N)=O)C(=O)N[C@@H](C)C(=O)N[C@@H](CCC(=O)O)C(=O)N[C@H](C(=O)N[C@@H](CC(N)=O)C(=O)NC(C)(C)C(=O)N[C@@H](CCC(N)=O)C(=O)N[C@H](C(=O)N[C@@H](CC(C)C)C(=O)N[C@@H](C)C(=O)N[C@@H](CCC(N)=O)C(=O)N[C@H](C(N)=O)C(C)C)[C@@H](C)CC)[C@@H](C)O)[C@@H](C)CC)[C@@H](C)CC)C(C)C)C(C)C
Turning to B5, the EC50 [nM] (cAMP) in assay [1] is 0.05 nM. In the assay with CRF1R receptor, the concentration giving a half-maximal response (EC50) worked out at 80.3 nM and the “Emax (% I)” value worked out at 61%.

B6: SEQ ID NO 215 (peptide)
peptide: [NMeI]VLSLD[dV]PIKLK([γGlu-C20 diacid])KILLEQEKQK[Aib]QREQAETN[Aib]QILAQV-NH2
modifications: N-terminus assumed
SMILES: CC[C@H](C)[C@H](NC)C(=O)N[C@H](C(=O)N[C@@H](CC(C)C)C(=O)N[C@@H](CO)C(=O)N[C@@H](CC(C)C)C(=O)N[C@@H](CC(=O)O)C(=O)N[C@@H](C(=O)N1CCC[C@H]1C(=O)N[C@H](C(=O)N[C@@H](CCCCN)C(=O)N[C@@H](CC(C)C)C(=O)N[C@@H](CCCCNC(=O)CC[C@H](NC(=O)CCCCCCCCCCCCCCCCCCC(=O)O)C(=O)O)C(=O)N[C@@H](CCCCN)C(=O)N[C@H](C(=O)N[C@@H](CC(C)C)C(=O)N[C@@H](CC(C)C)C(=O)N[C@@H](CCC(=O)O)C(=O)N[C@@H](CCC(N)=O)C(=O)N[C@@H](CCC(=O)O)C(=O)N[C@@H](CCCCN)C(=O)N[C@@H](CCC(N)=O)C(=O)N[C@@H](CCCCN)C(=O)NC(C)(C)C(=O)N[C@@H](CCC(N)=O)C(=O)N[C@@H](CCCNC(=N)N)C(=O)N[C@@H](CCC(=O)O)C(=O)N[C@@H](CCC(N)=O)C(=O)N[C@@H](C)C(=O)N[C@@H](CCC(=O)O)C(=O)N[C@H](C(=O)N[C@@H](CC(N)=O)C(=O)NC(C)(C)C(=O)N[C@@H](CCC(N)=O)C(=O)N[C@H](C(=O)N[C@@H](CC(C)C)C(=O)N[C@@H](C)C(=O)N[C@@H](CCC(N)=O)C(=O)N[C@H](C(N)=O)C(C)C)[C@@H](C)CC)[C@@H](C)O)[C@@H](C)CC)[C@@H](C)CC)C(C)C)C(C)C
B6 came in with an EC50 [nM] (cAMP) in assay [1] of 0.12 nM. In the assay with CRF1R receptor, the “Emax (% I)” value came to 19%.
